Measurements: IntAct's records for PubMed 20711168

B1: Dynamin-2 (Rattus norvegicus (Rat)), P39052 (parent)
chain: MGNRGMEELIPLVNKLQDAFSSIGQSCHLDLPQIAVVGGQSAGKSSVLENFVGRDFLPRGSGIVTRRPLILQLIFSKTEYAEFLHCKSKKFTDFDEVRQEIEAETDRVTGTNKGISPVPINLRVYSPHVLNLTLIDLPGITKVPVGDQPPDIEYQIKDMILQFISRESSLILAVTPANMDLANSDALKLAKEVDPQGLRTIGVITKLDLMDEGTDARDVLENKLLPLRRGYIGVVNRSQKDIEGRKDIRAALAAERKFFLSHPAYRHMADRMGTPHLQKTLNQQLTNHIRESLPTLRSKLQSQLLSLEKEVEEYKNFRPDDPTRKTKALLQMVQQFGVDFEKRIEGSGDQVDTLELSGGARINRIFHERFPFELVKMEFDEKDLRREISYAIKNIHGVRTGLFTPDLAFEAIVKKQVVKLKEPCLKCVDLVIQELISTVRQCTSKLSSYPRLREETERIVTTYIREREGRTKDQILLLIDIEQSYINTNHEDFIGFANAQQRSTQLNKKRAIPNQGEILVIRRGWLTINNISLMKGGSKEYWFVLTAESLSWYKDEEEKEKKYMLPLDNLKIRDVEKGFMSNKHVFAIFNTEQRNVYKDLRQIELACDSQEDVDSWKASFLRAGVYPEKDQAENEDGAQENTFSMDPQLERQVETIRNLVDSYVAIINKSIRDLMPKTIMHLMINNTKAFIHHELLAYLYSSADQSSLMEESAEQAQRRDDMLRMYHALKEALNIIGDISTSTVSTPVPPPVDDTWLQNTSSHSPTPQRRPVSSVHPPGRPPAVRGPTPGPPLIPMPVGATSSFSAPPIPSRPGPQNVFANNDPFSAPPQIPSRPARIPPGIPPGVPSRRAPAAPSRPTIIRPAEPSLLD

Variants of: B1
Conditions: with sh3k1_human SH3KBP1, Q96B97
Sequence of sh3k1_human SH3KBP1, Q96B97 (Q96B97 whole entry): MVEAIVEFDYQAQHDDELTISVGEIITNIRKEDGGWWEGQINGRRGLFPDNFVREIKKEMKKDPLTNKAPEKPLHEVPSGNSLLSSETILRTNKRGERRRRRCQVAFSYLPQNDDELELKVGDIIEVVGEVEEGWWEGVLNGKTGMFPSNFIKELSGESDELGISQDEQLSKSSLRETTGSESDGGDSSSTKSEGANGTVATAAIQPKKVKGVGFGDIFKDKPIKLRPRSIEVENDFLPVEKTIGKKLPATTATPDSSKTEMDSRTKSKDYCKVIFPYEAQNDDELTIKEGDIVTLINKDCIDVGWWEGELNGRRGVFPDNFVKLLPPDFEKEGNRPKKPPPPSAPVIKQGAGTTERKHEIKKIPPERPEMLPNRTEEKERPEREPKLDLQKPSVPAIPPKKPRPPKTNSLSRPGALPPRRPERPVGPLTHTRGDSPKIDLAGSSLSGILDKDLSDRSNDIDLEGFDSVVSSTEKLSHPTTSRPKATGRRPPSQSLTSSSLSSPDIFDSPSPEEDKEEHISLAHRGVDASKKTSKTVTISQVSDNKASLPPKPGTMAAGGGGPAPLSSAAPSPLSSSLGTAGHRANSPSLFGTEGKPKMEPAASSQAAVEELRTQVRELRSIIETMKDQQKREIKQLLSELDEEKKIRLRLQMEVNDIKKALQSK

effect of a mutation on the interaction | Variant
disrupting interaction | P767A
disrupting interaction | P765A
